Reference: patent US20020127227A1 (GlaxoSmithKline, published 2002)

Molecular target: T1, recombinant human RHAMM (receptor for hyaluronic acid mediated motility), GST tag removed (human, UniProt O75330-3 1-725, limits assumed)
T1 construct: Any residues left by the linker after thrombin cleavage are not described; The BIAcore text says only 'RHAMM' and 'soluble monomeric RHAMM'; also called soluble monomeric RHAMM
T1 sequence (looked up): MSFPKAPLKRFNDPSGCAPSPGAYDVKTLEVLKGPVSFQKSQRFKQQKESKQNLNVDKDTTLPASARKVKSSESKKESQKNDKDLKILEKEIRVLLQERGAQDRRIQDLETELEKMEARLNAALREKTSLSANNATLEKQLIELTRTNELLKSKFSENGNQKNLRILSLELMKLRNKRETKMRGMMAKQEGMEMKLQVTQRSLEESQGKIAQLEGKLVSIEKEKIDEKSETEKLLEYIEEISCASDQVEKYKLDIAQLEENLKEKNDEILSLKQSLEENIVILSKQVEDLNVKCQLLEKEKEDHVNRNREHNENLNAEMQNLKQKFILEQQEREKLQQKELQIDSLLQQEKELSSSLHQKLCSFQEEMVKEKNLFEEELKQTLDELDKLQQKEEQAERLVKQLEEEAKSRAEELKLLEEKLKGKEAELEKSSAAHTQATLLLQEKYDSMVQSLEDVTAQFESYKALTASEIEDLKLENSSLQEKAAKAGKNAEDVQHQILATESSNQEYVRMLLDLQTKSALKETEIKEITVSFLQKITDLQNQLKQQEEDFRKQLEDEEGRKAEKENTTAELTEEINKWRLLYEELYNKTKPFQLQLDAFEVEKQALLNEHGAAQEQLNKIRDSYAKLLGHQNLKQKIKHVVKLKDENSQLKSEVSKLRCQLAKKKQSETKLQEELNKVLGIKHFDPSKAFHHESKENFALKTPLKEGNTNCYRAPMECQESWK
Test: BIAcore SPR, mAb captured on rabbit anti-mouse IgG Fc, RHAMM injected
Description: The affinity of the purified mAbs was measured in the BIAcore. Using a flow rate of 10 ul/min, the mAb (diluted in HBS buffer) was injected over a rabbit anti-mouse IgG Fc surface, followed by buffer flow and the RU recorded. RHAMM diluted in HBS buffer was then injected for 180s followed by buffer flow for 150s and regeneration of the sensor chip surface with an injection of 0.1 M phosphoric acid. BIAcore software was used for association and dissociation-phase analysis. The murine monoclonal antibodies bound to soluble monomeric RHAMM. The on-rates (kₐₛₛ) and off-rates (kdiss) were calculated.

- Kd: 0.47 nM
B1: murine monoclonal antibody 16E10 (antibody, V domains shown)
VH: QVQLKESGPGLVAPSQSLSITCTVSGFSLTGYGVNWVRQPPGKGLEWLGMIWVDGGTDYNSALKSRLSISKDNSKSQVFLKMNSLQTDDTARYYCARGGSSLLGFAYWGQGTLVTVSA
VL: DIQMTQTTSSLSASLGDRVTISCRASQDISNYLNWYQQKPDGTVKLLIYYTSRLHSGVPSRFSGSGSGTDYSLTISNLEQEDIATYFCQQGNTLPRTFGGGTKLEIKR
modifications: N-terminus of the heavy chain blocked with pyroglutamic acid
notes: The rest is mouse IgG with a kappa light chain (amplified with mouse IgG CH1 and C kappa primers); also called mAb 16E10; ATCC 16E10
